# Substitutions are numbered along the chain they refer to.
# T1: RSV F protein mutant pXCS890 (RSV A2, UniProt P03420 26-109)
# T1 chain 1: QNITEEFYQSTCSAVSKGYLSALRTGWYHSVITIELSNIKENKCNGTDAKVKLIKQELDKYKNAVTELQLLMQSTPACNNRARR
# T1 chain 2: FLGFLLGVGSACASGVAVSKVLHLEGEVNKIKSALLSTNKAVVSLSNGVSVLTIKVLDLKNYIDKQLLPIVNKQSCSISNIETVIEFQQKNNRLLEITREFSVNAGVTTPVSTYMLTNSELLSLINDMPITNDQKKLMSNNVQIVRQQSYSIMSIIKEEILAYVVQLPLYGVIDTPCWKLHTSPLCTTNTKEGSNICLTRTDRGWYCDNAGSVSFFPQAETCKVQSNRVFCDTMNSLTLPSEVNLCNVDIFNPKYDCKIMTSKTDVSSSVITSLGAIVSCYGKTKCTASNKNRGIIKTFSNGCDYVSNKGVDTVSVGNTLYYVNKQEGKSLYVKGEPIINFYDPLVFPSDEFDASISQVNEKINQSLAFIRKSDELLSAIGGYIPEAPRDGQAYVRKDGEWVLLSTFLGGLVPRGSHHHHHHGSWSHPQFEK
# T2: RSV F protein mutant pXCS858 (RSV A2, UniProt P03420 26-109)
# T2 chain 1: T1 chain 1 with S30C, C78T
# T2 chain 2: T1 chain 2 with C12I, L52C, D350S
# T3: RSV F protein mutant pXCS881 (RSV A2, UniProt P03420 26-109)
# T3 chain 1: T1 chain 1 with S30C, C78T
# T3 chain 2: T1 chain 2 with L6C, C12I, L52C, I54S, N235C, D350S, E351Q, D353S
# T4: RSV F protein mutant pXCS827 (RSV A2, UniProt P03420 26-109)
# T4 chain 1: T1 chain 1
# T4 chain 2: T1 chain 2 with I160V
# T5: RSV F protein mutant pXCS849 (RSV A2, UniProt P03420 26-109)
# T5 chain 1: T1 chain 1
# T5 chain 2: T1 chain 2 with I54S, D350S
# B1: AM22 (antibody, V domains shown)
# VH: QVQLVQSGAEVKKPGATVKVSCKISGHTLIKLSIHWVRQAPGKGLEWMGGYEGEVDEIFYAQKFQHRLTVIADTATDTVYMELGRLTSDDTAVYFCGTLGVTVTEAGLGIDDYWGQGTLVTVSS
# VL: EIVLTQSPGTLSLSPGERATLSCRASQIVSRNHLAWYQQKPGQAPRLLIFGASSRATGIPVRFSGSGSGTDFTLTINGLAPEDFAVYYCLSSDSSIFTFGPGTKVDFK
# B2: MPE8 (antibody, V domains shown)
# VH: EVQLVESGGGLVKPGGSLRLSCAASGFTFSSYSMNWVRQAPGKGLEWVSSISASSSYSDYADSAKGRFTISRDNAKTSLFLQMNSLRAEDTAIYFCARARATGYSSITPYFDIWGQGTLVTVSS
# VL: QSVVTQTPSVSGAPGQRVTISCTGSSSNIGAGYDVHWYQQLPGTAPKLLIYDNNNRPSGVPDRFSASKSGTSASLAITGLQAEDEADYYCQSYDRNLSGVFGTGTKVTVL
# notes: also called MPEG
# How the values were obtained:
# Test in all cases: BLI (Octet), F on anti-HIS tip, 20 nM mAb
# [1] = molecular target: T1, RSV F protein mutant pXCS890
# [2] = molecular target: RSV F protein mutant pXCS853 (RSV A2, UniProt P03420 26-109)
# [3] = molecular target: T2, RSV F protein mutant pXCS858
# [4] = molecular target: RSV F protein mutant pXCS850 (RSV A2, UniProt P03420 26-109)
# [5] = molecular target: RSV F protein mutant pXCS740 (RSV A2, UniProt P03420 26-109)
# [6] = molecular target: T3, RSV F protein mutant pXCS881
# [7] = molecular target: T4, RSV F protein mutant pXCS827
# [8] = molecular target: RSV F protein mutant pXCS889 (RSV A2, UniProt P03420 26-109)
# [9] = molecular target: T5, RSV F protein mutant pXCS849
Binder,Response (nm shift) [1] [nm],Response (nm shift) [2] [nm],Response (nm shift) [3] [nm],Response (nm shift) [4] [nm],Response (nm shift) [5] [nm],Response (nm shift) [6] [nm],Response (nm shift) [7] [nm],Response (nm shift) [8] [nm],Response (nm shift) [9] [nm]
B1,0.538,0.484,0.547,0.517,0.172,0.178,0.45,0.477,0.43
B2,0.999,0.905,1.06,1.04,0.546,0.763,0.88,0.889,0.908
